Experiments:
[1] = target: histone deacetylase 1 (HDAC1), Xenopus (Xenopus laevis (endogenous in egg nucleoplasmic extract)); assay: co-IP; sequential IPs from NPE diluted 5x in ELB (10 mM Hepes-KOH pH 7.7, 2.5 mM MgCl2, 50 mM KCl, 250 mM sucrose), serum or antibody on Protein-A Sepharose, 4 °C 120 min, three washes; first round HDAC1 or HDAC2 IP, second round the converse antibody on the supernatant; supernatant and pellet by Western blot
[2] = target: histone deacetylase 1 (HDAC1), Xenopus (Xenopus laevis (endogenous in egg nucleoplasmic extract)); assay: immunodepletion (co-depletion), Western blot of the depleted extract; antibody on Protein-A Sepharose incubated with NPE at 4 °C for 1 h over two rounds; depleted extract blotted

A percent of HDAC2 removed by the HDAC1 IP [1] of 50% and a percent of HDAC2 codepleted with HDAC1 [2] of 50% were found for “histone deacetylase 2 (HDAC2), Xenopus (enzyme)” in this work.

Reference: paper PMC9650048
